Measured values: patent publication US20170137467A1 (CHROMOTEK, published 2017)
Ends that are not written are not given here.

Experiments:
[1] = molecular target: T1, recombinant human β-catenin, full-length (human, UniProt P35222 1-781, limits assumed); assay: not stated at this place (description)
T1 construct: Purified from E. coli; also called full-length β-catenin
T1 sequence (looked up): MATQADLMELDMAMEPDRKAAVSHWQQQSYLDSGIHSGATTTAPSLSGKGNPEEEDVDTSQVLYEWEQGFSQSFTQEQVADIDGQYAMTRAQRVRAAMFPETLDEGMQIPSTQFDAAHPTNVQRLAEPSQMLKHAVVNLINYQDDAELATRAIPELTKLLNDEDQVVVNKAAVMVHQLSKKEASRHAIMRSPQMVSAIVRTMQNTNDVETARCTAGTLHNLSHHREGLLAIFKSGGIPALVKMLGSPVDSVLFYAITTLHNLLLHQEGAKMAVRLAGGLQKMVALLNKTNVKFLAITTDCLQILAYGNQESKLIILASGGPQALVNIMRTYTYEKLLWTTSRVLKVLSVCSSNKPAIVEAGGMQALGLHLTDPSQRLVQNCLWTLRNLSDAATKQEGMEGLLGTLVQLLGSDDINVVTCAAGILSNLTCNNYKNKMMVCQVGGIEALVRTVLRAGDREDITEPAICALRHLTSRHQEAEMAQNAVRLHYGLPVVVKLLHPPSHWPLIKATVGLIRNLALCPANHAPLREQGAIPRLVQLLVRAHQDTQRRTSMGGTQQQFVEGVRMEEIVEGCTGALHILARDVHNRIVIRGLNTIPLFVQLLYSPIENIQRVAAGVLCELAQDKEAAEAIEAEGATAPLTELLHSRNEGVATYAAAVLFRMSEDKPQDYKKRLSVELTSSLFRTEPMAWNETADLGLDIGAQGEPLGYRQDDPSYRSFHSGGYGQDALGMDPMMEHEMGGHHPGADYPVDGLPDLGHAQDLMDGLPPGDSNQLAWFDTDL
Experimental: The dissociation was induced by two injections of regeneration solution of 15 μl each at the identical flow rates.

[2] = molecular target: T2, eGFP-PCNA with C-terminal BC2 tag (eGFP-PCNABC2T) (human, UniProt P12004 1-261); assay: immunoprecipitation from HEK293T lysate, immunoblot with anti-PCNA
T2 construct: Expressed in HEK293T or HeLa cells; not shown: eGFP
Experimental: HEK293T cells transiently expressing eGFP, eGFPBC2T or BC2TeGFP, eGFP-PCNA, eGFP-PCNABC2T, mCherry-Vimentin, mCherry-VimentinBC2T were washed and harvested in phosphate buffered saline (PBS), snap-frozen in liquid nitrogen and stored at −20° C. Cell pellets were homogenized in 200 μl lysis buffer (10 mM Tris/Cl pH 7.5, 150 mM NaCl, 0.5% NP40, 1 μg DNaseI, 2 mM MgCl₂, 2 mM PMSF, 1× protease inhibitor mix M (Serva) by repeated pipetting for 40 min on ice. After a centrifugation step (10 min at 18.000×g) the protein concentration of each lysate was determined using a Pierce BCA Protein Assay Kit (Thermo Fisher Scientific) according to manufacturer's protocol and the protein solutions were adjusted with dilution buffer (10 mM Tris/Cl pH 7.5, 150 mM NaCl, 2 mM PMSF) to a concentration of 1 mg/ml. 2% of the supernatant were added to SDS-containing sample buffer (referred to as input). […] After a centrifugation step (2 min, 2500×g) the precleared supernatant was transferred to a new cup. 2% were added to SDS-containing sample buffer (referred to as non-bound). […] Samples were analyzed by SDS-PAGE followed by immunoblotting. Immunoblots were probed with indicated antibodies.

EPDRKAAVSHWQQQS = molecular target: T3, EPDRKAAVSHWQQQS; assay: peptide aa 15-29 on microspheres, biotinylated BC2-Nb, streptavidin-PE
T3 construct: unphosphorylated counterpart of 1.m32; also called β-catenin peptide aa 15-29 without phosphorylated Ser23; phos Ser23 -
T3 peptide: EPDRKAAVSHWQQQS
Description: (§1) As negative controls, microspheres comprising Ovalbumin and the Myc-peptide ([…]) covalently coupled to OVA-microspheres were used. […] Evaluation of the PE-signals were done in a Flexmap 3D (Luminex).

AMEPDRKAAVSHWQQ = molecular target: T4, AMEPDRKAAVSHWQQ (also: coupled via added N-terminal Cys to OVA-microspheres); assay: pepscan: 15-mer peptide on OVA-microspheres, biotinylated BC2-Nb, streptavidin-PE
T4 construct: also called β-catenin peptide Start 13 End 27
T4 peptide: CAMEPDRKAAVSHWQQ
Description: as §1

β-catenin peptide 33-47 = molecular target: T5, β-catenin peptide 33-47 (human, UniProt P35222); assay: as above
T5 construct: synthetic 15-mer; additional N-terminal cysteine for coupling; also called Start 33 End 47
T5 peptide (looked up): SGIHSGATTTAPSLS
Description: as §1

β-catenin peptide 65-79 = molecular target: T6, β-catenin peptide 65-79 (human, UniProt P35222); assay: as above
T6 construct: synthetic 15-mer; additional N-terminal cysteine for coupling; also called Start 65 End 79
T6 peptide (looked up): EWEQGFSQSFTQEQV
Description: as §1

β-catenin peptide 89-103 = molecular target: T7, β-catenin peptide 89-103 (human, UniProt P35222); assay: as above
T7 construct: synthetic 15-mer; additional N-terminal cysteine for coupling; also called Start 89 End 103
T7 peptide (looked up): TRAQRVRAAMFPETL
Description: as §1

β-catenin peptide 97-111 = molecular target: T8, β-catenin peptide 97-111 (human, UniProt P35222); assay: as above
T8 construct: synthetic 15-mer; additional N-terminal cysteine for coupling; also called Start 97 End 111
T8 peptide (looked up): AMFPETLDEGMQIPS
Description: as §1

[3] = molecular target: T9, β-catenin peptide 105-119 (human, UniProt P35222); assay: as above
T9 construct: synthetic 15-mer; additional N-terminal cysteine for coupling
T9 peptide (looked up): EGMQIPSTQFDAAHP
Description: as §1

[4] = molecular target: T10, β-catenin peptide 109-123 (human, UniProt P35222); assay: as above
T10 construct: synthetic 15-mer; additional N-terminal cysteine for coupling; also called Start 109 End 123
T10 peptide (looked up): IPSTQFDAAHPTNVQ
Description: as §1

[5] = molecular target: T11, β-catenin peptide 113-127 (human, UniProt P35222); assay: as above
T11 construct: synthetic 15-mer; additional N-terminal cysteine for coupling; also called Start 113 End 127
T11 peptide (looked up): QFDAAHPTNVQRLAE
Description: as §1

T2 sequence (P12004 other isoform, or with tags, fused parts or gaps limits assumed): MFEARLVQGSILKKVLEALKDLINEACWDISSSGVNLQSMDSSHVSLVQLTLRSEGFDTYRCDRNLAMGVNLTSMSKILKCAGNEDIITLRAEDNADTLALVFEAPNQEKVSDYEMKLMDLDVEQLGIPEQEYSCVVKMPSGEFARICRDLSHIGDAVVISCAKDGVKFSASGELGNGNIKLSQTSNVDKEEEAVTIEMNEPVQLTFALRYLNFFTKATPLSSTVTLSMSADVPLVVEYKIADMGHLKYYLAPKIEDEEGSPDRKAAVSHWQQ

B1: BC2 nanobody (VHH)
VHH: QVQLVESGGGLVQPGGSLTLSCTASGFTLDHYDIGWFRQAPGKEREGVSCINNSDDDTYYADSVKGRFTIFMDNAKDTVYLQMNSLKPEDTAIYYCAEARGCKRGRYEYDFWGQGTQVTVSS
notes: Alpaca VHH, 122 aa; also called BC2-Nb; BC2 nanotrap (BC2-Nb immobilized on agarose/Sepharose beads); not shown: C-terminal 6xHis-tag added by the pHEN6 vector
What does the source list for B1?
Kd [1]: 3.7 nM; binding result [2]: binds; binding result (EPDRKAAVSHWQQQS): binds; binding result (AMEPDRKAAVSHWQQ): binds; binding result (β-catenin peptide 33-47): no binding (tested: 1 µg/ml BC2-Nb); binding result (β-catenin peptide 65-79): no binding (tested: 1 µg/ml BC2-Nb); binding result (β-catenin peptide 89-103): no binding (tested: 1 µg/ml BC2-Nb); binding result (β-catenin peptide 97-111): no binding (tested: 1 µg/ml BC2-Nb); binding result [3]: no binding (tested: 1 µg/ml BC2-Nb); binding result [4]: no binding (tested: 1 µg/ml BC2-Nb); binding result [5]: no binding (tested: 1 µg/ml BC2-Nb)
